From paper PMC5599240

Target: GluA2 flip receptor, unedited at the pore site (Q-containing), wild type (UniProt P19491)
UniProt P19491, sequence (P19491 other isoform, or with tags, fused parts or gaps): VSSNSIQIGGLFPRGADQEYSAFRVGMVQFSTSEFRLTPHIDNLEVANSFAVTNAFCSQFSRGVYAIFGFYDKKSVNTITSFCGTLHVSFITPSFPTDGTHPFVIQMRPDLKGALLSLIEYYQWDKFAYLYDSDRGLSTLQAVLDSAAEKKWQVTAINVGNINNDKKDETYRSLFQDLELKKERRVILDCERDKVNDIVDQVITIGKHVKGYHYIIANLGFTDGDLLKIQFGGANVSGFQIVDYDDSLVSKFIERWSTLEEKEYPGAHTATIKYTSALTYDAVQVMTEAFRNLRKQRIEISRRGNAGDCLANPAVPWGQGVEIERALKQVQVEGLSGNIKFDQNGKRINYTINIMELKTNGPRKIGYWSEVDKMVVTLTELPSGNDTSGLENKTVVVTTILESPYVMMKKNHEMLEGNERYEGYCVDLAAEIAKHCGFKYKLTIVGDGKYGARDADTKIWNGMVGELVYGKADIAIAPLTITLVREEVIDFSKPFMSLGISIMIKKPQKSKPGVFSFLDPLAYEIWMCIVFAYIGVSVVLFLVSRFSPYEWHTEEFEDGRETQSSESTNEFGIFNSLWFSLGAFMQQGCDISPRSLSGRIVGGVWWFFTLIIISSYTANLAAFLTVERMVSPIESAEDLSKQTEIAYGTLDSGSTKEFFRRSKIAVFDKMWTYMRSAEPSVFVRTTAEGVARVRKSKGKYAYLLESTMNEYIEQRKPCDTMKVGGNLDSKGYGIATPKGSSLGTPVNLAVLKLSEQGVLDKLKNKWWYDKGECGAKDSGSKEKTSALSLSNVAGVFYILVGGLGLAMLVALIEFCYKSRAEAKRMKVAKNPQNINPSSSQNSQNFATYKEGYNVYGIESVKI

B1: TARP γ2 (Stargazin), mouse, wild type (natural protein)
chain: MGLFDRGVQMLLTTVGAFAAFSLMTIAVGTDYWLYSRGVCKTKSVSENETSKKNEEVMTHSGLWRTCCLEGNFKGLCKQIDHFPEDADYEADTAEYFLRAVRASSIFPILSVILLFMGGLCIAASEFYKTRHNIILSAGIFFVSAGLSNIIGIIVYISANAGDPSKSDSKKNSYSYGWSFYFGALSFIIAEMVGVLAVHMFIDRHKQLRATARATDYLQASAITRIPSYRYRYQRRSRSSSRSTEPSHSRDASPVGVKGFNTLPSTEISMYTLSRDPLKAATTPTATYNSDRDNSFLQVHNCIQKDSKDSLHANTANRRTTPV
With B1 the coupling energy of a thermodynamic cycle (γ2 wild type or L2 GS with GluA2 wild type or GAG/GSG), superactivation during 7 s of 10 mM glutamate was 1.08 kcal/mol.
